Results on 1 substance are retold here after article PMC6642547.

In the experiment the target is human GITR-Fc (human) (UniProt Q9Y5U5). The experiment is described as follows: not stated; binding to and dissociation from the GITR-Fc receptors measured in real time, equilibrium binding constants (KD) calculated; instrument and who was immobilised not told in what was shown.
Chain of human GITR-Fc (human) (Q9Y5U5 26-162): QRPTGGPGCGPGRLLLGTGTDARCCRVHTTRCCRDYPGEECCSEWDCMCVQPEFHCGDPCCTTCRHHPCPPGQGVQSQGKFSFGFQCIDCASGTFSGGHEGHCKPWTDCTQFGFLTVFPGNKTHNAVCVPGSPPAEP

For orientation: Kd means the equilibrium constant for the complex coming apart. With “HERA-GITRL (hexavalent TNF receptor agonist; single-chain GITRL-receptor-binding-domain fused to a silenced human IgG1 Fc) (from UniProt Q9UNG2 56-177; Q9UNG2 56-177; Q9UNG2 56-177) (Fc fusion)”, the Kd was 0.366 nM.
